Data as given in patent publication US20140294878A1.

Assays:
[1] = target: IgEs from a pool of sera from patients allergic to birch pollen and apple; assay: ELISA inhibition, serum pool pre-incubated with 0.625 µg/ml inhibitor; competitor: wt Bet v 1 adsorbed on wells
[2] = target: IgEs from a pool of sera from patients allergic to birch pollen and apple; assay: ELISA inhibition, serum pool pre-incubated with 0.3125 µg/ml inhibitor; competitor: wt Mal d 1 adsorbed on wells
[3] = target: IgEs from a pool of sera from patients allergic to birch pollen and apple; assay: ELISA inhibition, serum pool pre-treated with 0.3125 µg/ml inhibitor; competitor: wt Mal d 1 adsorbed on wells
[4] = target: IgEs from a pool of sera from patients allergic to birch pollen and apple; assay: ELISA inhibition, serum pool pre-treated with 0.625 µg/ml inhibitor; competitor: wt Bet v 1 adsorbed on wells
IgE of patient serum 5 [5] = assay: ELISA inhibition, serum 5 pre-incubated with 1.25 µg/ml inhibitor; competitor: wt Mal d 1 adsorbed on wells
IgE of patient serum 2 [6] = assay: ELISA inhibition, serum 2 pre-incubated with 1.25 µg/ml inhibitor; competitor: wt Mal d 1 adsorbed on wells
IgE of patient serum 1 [7] = assay: ELISA inhibition, serum 1 pre-incubated with 1.25 µg/ml inhibitor; competitor: wt Mal d 1 adsorbed on wells
IgE of patient serum 2 [8] = assay: ELISA inhibition, serum 2 pre-incubated with 1.25 µg/ml inhibitor; competitor: wt Bet v 1 adsorbed on wells
IgE of patient serum 3 [9] = assay: ELISA inhibition, serum 3 pre-incubated with 1.25 µg/ml inhibitor; competitor: wt Mal d 1 adsorbed on wells
IgE of patient serum 7 [10] = assay: ELISA inhibition, serum 7 pre-incubated with 1.25 µg/ml inhibitor; competitor: wt Mal d 1 adsorbed on wells
IgE of patient serum 1 [11] = assay: ELISA inhibition, serum 1 pre-incubated with 1.25 µg/ml inhibitor; competitor: wt Bet v 1 adsorbed on wells
[12] = target: specific IgE contained in the sera of 7 patients allergic to birch and apple; assay: ELISA inhibition, 7 sera pre-incubated with 1.25 µg/ml inhibitor; competitor: wt Bet v 1 adsorbed on wells
[13] = target: specific IgE contained in the sera of 7 patients allergic to birch and apple; assay: ELISA inhibition, 7 sera pre-incubated with 1.25 µg/ml inhibitor; competitor: wt Mal d 1 adsorbed on wells
IgE of patient serum 6 [14] = assay: ELISA inhibition, serum 6 pre-incubated with 1.25 µg/ml inhibitor; competitor: wt Bet v 1 adsorbed on wells
IgE of patient serum 4 [15] = assay: ELISA inhibition, serum 4 pre-incubated with 1.25 µg/ml inhibitor; competitor: wt Bet v 1 adsorbed on wells
IgE of patient serum 5 [16] = assay: ELISA inhibition, serum 5 pre-incubated with 1.25 µg/ml inhibitor; competitor: wt Bet v 1 adsorbed on wells
IgE of patient serum 6 [17] = assay: ELISA inhibition, serum 6 pre-incubated with 1.25 µg/ml inhibitor; competitor: wt Mal d 1 adsorbed on wells
IgE of patient serum 7 [18] = assay: ELISA inhibition, serum 7 pre-incubated with 1.25 µg/ml inhibitor; competitor: wt Bet v 1 adsorbed on wells
IgE of patient serum 3 [19] = assay: ELISA inhibition, serum 3 pre-incubated with 1.25 µg/ml inhibitor; competitor: wt Bet v 1 adsorbed on wells
IgE of patient serum 4 [20] = assay: ELISA inhibition, serum 4 pre-incubated with 1.25 µg/ml inhibitor; competitor: wt Mal d 1 adsorbed on wells

Binder	% inhibition of Mal d 1-IgE binding (IgE of patient serum 5 [5]) [%]	% inhibition of Mal d 1-IgE binding (IgE of patient serum 2 [6]) [%]	% inhibition of Mal d 1-IgE binding (IgE of patient serum 1 [7]) [%]	% inhibition of Bet v 1-IgE binding (IgE of patient serum 2 [8]) [%]	% inhibition of Mal d 1-IgE binding (IgE of patient serum 3 [9]) [%]	% inhibition of Mal d 1-IgE binding (IgE of patient serum 7 [10]) [%]	% inhibition of Bet v 1-IgE binding (IgE of patient serum 1 [11]) [%]	mean % inhibition of Bet v 1-IgE binding (7 sera) [12] [%]	mean % inhibition of Mal d 1-IgE binding (7 sera) [13] [%]	% inhibition of Bet v 1-IgE binding (IgE of patient serum 6 [14]) [%]	% inhibition of Bet v 1-IgE binding (IgE of patient serum 4 [15]) [%]	% inhibition of Bet v 1-IgE binding (IgE of patient serum 5 [16]) [%]	% inhibition of Mal d 1-IgE binding (IgE of patient serum 6 [17]) [%]	% inhibition of Bet v 1-IgE binding (IgE of patient serum 7 [18]) [%]	% inhibition of Bet v 1-IgE binding (IgE of patient serum 3 [19]) [%]	% inhibition of Mal d 1-IgE binding (IgE of patient serum 4 [20]) [%]	further results
hypoallergenic Mal d 1 variant with two substitutions, positions 25 and 78 (SEQ ID NO: 2) (protein) HHHHHHGVYTFENEFTSEIPPSRLFKAFVLAADNLIPKIAPQAIKQAEILEGDGGPGTIKKITFGEGSQYGYVKHKIDSVDEAAYSYAYTLIEGDALTDTIEKVSYETKLVASGSGSIIKSISHYHTKGDVEIKEEHVKAGKEKAHGLFKLIESYLKGHPDAYN	–	–	–	–	–	–	–	–	–	–	–	–	–	–	–	–	% inhibition of wt Bet v 1-IgE binding [1]: 4.2%; % inhibition of wt Mal d 1-IgE binding [2]: 25.4%
wild-type Mal d 1, major allergen of Malus domestica (SEQ ID NO: 1) (protein) HHHHHHGVYTFENEFTSEIPPSRLFKAFVLDADNLIPKIAPQAIKQAEILEGDGGPGTIKKITFGEGSQYGYVKHKIDSVDEANYSYAYTLIEGDALTDTIEKVSYETKLVASGSGSIIKSISHYHTKGDVEIKEEHVKAGKEKAHGLFKLIESYLKGHPDAYN	–	–	–	–	–	–	–	–	–	–	–	–	–	–	–	–	% inhibition of wt Bet v 1-IgE binding [1]: 46%; % inhibition of wt Mal d 1-IgE binding [3]: 93.3%
Mal d 1 variant with the single substitution Asn 78 in Ala (SEQ ID NO: 11) (protein) HHHHHHGVYTFENEFTSEIPPSRLFKAFVLDADNLIPKIAPQAIKQAEILEGDGGPGTIKKITFGEGSQYGYVKHKIDSVDEAAYSYAYTLIEGDALTDTIEKVSYETKLVASGSGSIIKSISHYHTKGDVEIKEEHVKAGKEKAHGLFKLIESYLKGHPDAYN	–	–	–	–	–	–	–	–	–	–	–	–	–	–	–	–	% inhibition of wt Bet v 1-IgE binding [4]: 32.1%; % inhibition of SEQ ID NO:1-IgE binding [2]: 19.7%
mixture of the single wt allergens (wt Bet v 1 and wt Mal d 1) (protein) chain 1: HHHHHHGVFNYETETTSVIPAARLFKAFILDGDNLFPKVAPQAISSVENIEGNGGPGTIKKISFPEGFPFKYVKDRVDEVDHTNFKYNYSVIEGGPIGDTLEKISNEIKIVATPDGGSILKINNKYHTKGDHEVKAEQIKASKEMGETLLRAVESYLLAHSDAYN chain 2: HHHHHHGVYTFENEFTSEIPPSRLFKAFVLDADNLIPKIAPQAIKQAEILEGDGGPGTIKKITFGEGSQYGYVKHKIDSVDEANYSYAYTLIEGDALTDTIEKVSYETKLVASGSGSIIKSISHYHTKGDVEIKEEHVKAGKEKAHGLFKLIESYLKGHPDAYN	88.3	93.9	95.5	96.6	80.5	70.3	97.1	79.9	82.8	65.2	81.2	91.6	73.7	36.8	90.9	77.3	–
mixture of the two mutagenised allergens (mut Bet v 1-SEQ ID NO:6 and mut Mal d 1-SEQ ID NO:2) (protein) chain 1: HHHHHHGVFNYETETTSVIPAARLFKAFILDGDNLFPKVAPQAISSVENIEGNGGPGTIAKISFPEGFPFKYVKDRVDEVDHTNFKYNYSVIEGGPIGDTLEKISNEIKIVATPDGGSILAINNKYHTAGDHEVKAEQIKASKEMGETLLRAVESYLLAHSDAYN chain 2: HHHHHHGVYTFENEFTSEIPPSRLFKAFVLAADNLIPKIAPQAIKQAEILEGDGGPGTIKKITFGEGSQYGYVKHKIDSVDEAAYSYAYTLIEGDALTDTIEKVSYETKLVASGSGSIIKSISHYHTKGDVEIKEEHVKAGKEKAHGLFKLIESYLKGHPDAYN	27.6	42.4	76.7	72.8	49	65.6	88.4	53.3	51.6	41.8	56.5	41	53.9	20.6	52.3	46	–
wild-type Bet v 1, major allergen of Betula verrucosa pollen (SEQ ID NO: 5) (protein) HHHHHHGVFNYETETTSVIPAARLFKAFILDGDNLFPKVAPQAISSVENIEGNGGPGTIKKISFPEGFPFKYVKDRVDEVDHTNFKYNYSVIEGGPIGDTLEKISNEIKIVATPDGGSILKINNKYHTKGDHEVKAEQIKASKEMGETLLRAVESYLLAHSDAYN	–	–	–	–	–	–	–	–	–	–	–	–	–	–	–	–	% inhibition of wt Bet v 1-IgE binding [4]: 94%
wild-type Bet v 1-Mal d 1 hybrid molecule (SEQ ID NO: 3) (protein) HHHHHHGVFNYETETTSVIPAARLFKAFILDGDNLFPKVAPQAISSVENIEGNGGPGTIKKISFPEGFPFKYVKDRVDEVDHTNFKYNYSVIEGGPIGDTLEKISNEIKIVATPDGGSILKINNKYHTKGDHEVKAEQIKASKEMGETLLRAVESYLLAHSDAYNEFGVYTFENEFTSEIPPSRLFKAFVLDADNLIPKIAPQAIKQAEILEGDGGPGTIKKITFGEGSQYGYVKHKIDSVDEANYSYAYTLIEGDALTDTIEKVSYETKLVASGSGSIIKSISHYHTKGDVEIKEEHVKAGKEKAHGLFKLIESYLKGHPDAYN	68	84.5	92	85.1	75.1	60.6	93.6	63.3	74.6	56.6	61.7	50.8	70.5	15.9	76.2	71.3	–
mutant Bet v 1-Mal d 1 hybrid molecule (SEQ ID NO: 4) (protein) HHHHHHGVFNYETETTSVIPAARLFKAFILDGDNLFPKVAPQAISSVENIEGNGGPGTIAKISFPEGFPFKYVKDRVDEVDHTNFKYNYSVIEGGPIGDTLEKISNEIKIVATPDGGSILAINNKYHTAGDHEVKAEQIKASKEMGETLLRAVESYLLAHSDAYNEFGVYTFENEFTSEIPPSRLFKAFVLAADNLIPKIAPQAIKQAEILEGDGGPGTIKKITFGEGSQYGYVKHKIDSVDEAAYSYAYTLIEGDALTDTIEKVSYETKLVASGSGSIIKSISHYHTKGDVEIKEEHVKAGKEKAHGLFKLIESYLKGHPDAYN	50.8	41.9	91	36.4	66.3	60.4	90.2	32.1	63.6	0	35.9	7.8	70.8	18.2	35.9	64.3	–
